This note sets out measurements from PMC10351450 (Autophagy, 2023).

This test concerns the target Oligomeric recombinant human Aβ1-42 (human, UniProt P05067). Put plainly: co-IP.

B1: ATP6V0C subunit of V-ATPase from mouse brain (natural protein)
chain: MADIKNNPEYSSFFGVMGASSAMVFSAMGAAYGTAKSGTGIAAMSVMRPELIMKSIIPVVMAGIIAIYGLVVAVLIANSLTDGITLYRSFLQLGAGLSVGLSGLAAGFAIGIVGDAGVRGTAQQPRLFVGMILILIFAEVLGLYGLIVALILSTK
With B1, the binding result is on record as “binds”.
